The results in this text go back to US20250382352A1 (SCG CELL THERAPY PTE, published 2025).

Like-named read-outs stand apart in the source and are kept apart here.

Broadly, the Kd is the constant that tells how readily two partners part at equilibrium. As usually defined, the EC50 is the concentration that produces a half-maximal response. As usually defined, the EC50 (read off the curve) is the concentration at which the effect is half-maximal.

In assay [1] the target is T1, human CD3ε recombinant protein (human, UniProt P07766 23-126).
T1 construct: also called human CD3E; huCD3ε
In words: SPR (Biacore), bsAb on protein A chip, antigen in flow. The protocol:
(§1) Binding affinity of anti-HBsAg/anti-CD3 constructs to HBsAg and human/cynomolgus CD3ε is characterized by SPR using Biacore […] (GE Healthcare). Specifically, the anti-HBsAg/anti-CD3 bispecific antibodies were immobilized on protein A chip at a flow rate of 10 μL/min, and gradient dilution of huCD3ε, cynoCD3ε, or HBsAg antigen was used as the mobile phase. The binding condition was 10 μL/min×180 s. The dissociation condition was 10 μL/min×400 s and the regeneration conditions were 30 μL/min×30 s at pH1.5 Gly. FIG. 10 and FIG. 11 show the kinetic curves of bsAb-2-5 and bsAb-2-6 constructs bind to human and cynomolgus CD3 recombinant proteins, respectively. FIG. 12 show the kinetic curves of bsAb2-5 and bsAb2-6 constructs bind to HBsAg.
In general terms: SPR reads the build-up and loss of mass on a sensor chip optically.

Assay [2] addresses T2, HBsAg recombinant protein (hepatitis B virus).
T2 chain: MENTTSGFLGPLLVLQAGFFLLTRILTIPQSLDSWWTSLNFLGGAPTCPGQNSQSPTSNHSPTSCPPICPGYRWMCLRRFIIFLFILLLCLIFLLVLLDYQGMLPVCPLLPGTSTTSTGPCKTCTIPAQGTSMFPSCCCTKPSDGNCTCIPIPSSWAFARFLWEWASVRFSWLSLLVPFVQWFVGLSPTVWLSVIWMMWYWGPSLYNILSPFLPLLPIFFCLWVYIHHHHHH
The description is as above. The protocol: as §1

Assay [3] concerns the target T3, cynomolgus CD3ε recombinant protein (cynomolgus, UniProt Q95LI5 22-117).
T3 construct: also called cynoCD3ε; cynomolgus CD38 [sic]
T3 sequence (looked up): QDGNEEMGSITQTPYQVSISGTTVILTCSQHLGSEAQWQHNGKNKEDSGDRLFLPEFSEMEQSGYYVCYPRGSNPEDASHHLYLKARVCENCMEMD
Described as above. The protocol:
as §1

Assay [4] deals with T1, human CD3ε recombinant protein. In words: ELISA, recombinant protein. The method, then: (§2) Anti-HBsAg/anti-CD3 bispecific antibodies generated in Example 1 are analyzed by standard ELISA techniques for their binding properties to HBsAg, human CD3E, and rhesus CD3ε recombinant protein, respectively.
Background: An ELISA detects its analyte on a solid surface through an enzyme-linked reagent.

The target in assay [5] is T2, HBsAg recombinant protein. Briefly: ELISA, recombinant protein. The method, then: as §2
Assay [6] has as its target T4, rhesus CD3ε recombinant protein (rhesus).
T4 construct: also called rhesus CD38 [sic]
In words: ELISA, recombinant protein. The method, then:
as §2

Assay [7] concerns the target T4, rhesus CD3ε recombinant protein. In words: ELISA, recombinant rhesus CD3ε.
For assay [8] the target is unchanged. In words: ELISA, recombinant rhesus CD3ε. This is another data set of the same source.
Assay [9] concerns the target T2, HBsAg recombinant protein. In words: ELISA, recombinant HBsAg.
For assay [10], the target named is T1, human CD3ε recombinant protein. In words: ELISA, recombinant human CD3ε.
Assay [11] has the same target. In words: ELISA, recombinant human CD3ε. The source holds these as a separate data set.
In assay [12] the target is T2, HBsAg recombinant protein. Briefly: ELISA, recombinant HBsAg.
Assay [13] concerns the target T5, CD3ε expressed on the surface of Jurkat cells (human, UniProt P07766 23-207).
T5 construct: whole, on cells; also called CD3 expressed on human leukemic T cell line Jurkat; hCD3ε
In words: flow cytometry on Jurkat cells (panel title: Binding with CD3+ T cell), MFI.

T1 sequence (P07766 23-126 limits assumed): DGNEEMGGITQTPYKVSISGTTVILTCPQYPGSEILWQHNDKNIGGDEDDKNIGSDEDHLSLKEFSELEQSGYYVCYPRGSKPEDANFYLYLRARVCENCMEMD
T5 sequence (P07766 23-207): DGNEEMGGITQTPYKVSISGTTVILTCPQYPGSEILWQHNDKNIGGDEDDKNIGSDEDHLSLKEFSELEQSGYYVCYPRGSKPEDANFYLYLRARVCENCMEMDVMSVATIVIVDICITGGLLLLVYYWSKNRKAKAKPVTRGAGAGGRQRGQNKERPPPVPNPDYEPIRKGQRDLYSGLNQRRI

B1: BsAb2-6-016 (bispecific antibody)
heavy: not shown
light: QTVVTQEPSLTVSPGGTVTLTCRSSTGAVTTSNYANWVQQKPGQAPRALIGGTNKRAPWTPARFSGSLLGDKAALTLSGVQPEDEAEYYCALWYSNLWVFGGGTKLTVLRTVAAPSVFIFPPSDEQLKSGTASVVCLLNNFYPREAKVQWKVDNALQSGNSQESVTEQDSKDSTYSLSSTLTLSKADYEKHKVYACEVTHQGLSSPVTKSFNRGEC
notes: also called VH4VL1; SCG2-6-016
On to B1, for which the Kd in assay [1] stood at 35.3 nM; in assay [2], 0.054 nM; in [3], 36 nM. In addition, the EC50 turned out to be 0.8 nM in assay [4], 0.71 nM in assay [5] and 0.36 nM in assay [6].

B2: BsAb2-6 (C8 scFv fused to the C-terminus of the heavy chain of the murine anti-CD3 Ab via a linker) (bispecific antibody)
chain 1: not shown
chain 2: QAVVTQESALTTSPGETVTLTCRSSTGAVTTSNYANWVQEKPDHLFTGLIGGTNKRAPGVPARFSGSLIGDKAALTITGAQTEDEAIYFCALWYSNLWVFGGGTKLTVLRTVAAPSVFIFPPSDEQLKSGTASVVCLLNNFYPREAKVQWKVDNALQSGNSQESVTEQDSKDSTYSLSSTLTLSKADYEKHKVYACEVTHQGLSSPVTKSFNRGEC
Turning to B2, the “EC50 (read off the curve)” value in assay [7] was around 0.07 nM; in assay [8], around 0.07 nM; in [9], around 0.3 nM; in [10], 0.1 to 0.2 nM; in [11], around 0.3 nM; in assay [12], around 0.2 nM.

B3: BsAb2-5 (C8 scFv fused to the N-terminal of the heavy chain of the murine anti-CD3 mAb) (bispecific antibody)
chain 1: not shown
chain 2: B2 chain 2
Consider B3, for which the “EC50 (read off the curve)” value in assay [13] was around 0.05 nM.
